Like-named read-outs stand apart in the source and are kept apart here.
Legend:
RECQ1T1 = RECQ1T1 (human, UniProt P46063 49-616); assay: fluorescence anisotropy
RECQ1T1,helix4A = RECQ1T1,helix4A (human, UniProt P46063 49-616, F420A;F424A;S427A;S428A); assay: fluorescence anisotropy
D2-Zn-WH [1] = molecular target: T1, D2-Zn-WH (human, UniProt P46063 282-616); assay: fluorescence anisotropy
D2-Zn-WH [2] = molecular target: T1, D2-Zn-WH; assay: fluorescence anisotropy; remark: listed apart in the source
D2-Zn-WH helix4A [3] = molecular target: T2, D2-Zn-WH helix4A (human, UniProt P46063 282-616, F420A;F424A;S427A;S428A); assay: fluorescence anisotropy
T2 sequence (P46063 282-616 F420A/F424A/S427A/S428A): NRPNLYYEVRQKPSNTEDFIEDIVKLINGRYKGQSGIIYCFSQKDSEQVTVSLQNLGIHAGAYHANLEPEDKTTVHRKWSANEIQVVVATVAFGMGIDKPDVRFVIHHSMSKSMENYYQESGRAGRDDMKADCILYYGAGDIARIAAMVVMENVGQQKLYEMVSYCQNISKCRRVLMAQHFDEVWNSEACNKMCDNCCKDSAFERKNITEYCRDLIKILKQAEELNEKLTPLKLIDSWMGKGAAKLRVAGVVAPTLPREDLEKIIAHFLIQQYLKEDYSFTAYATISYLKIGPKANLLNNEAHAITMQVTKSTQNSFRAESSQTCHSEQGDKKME

D2-Zn-WH [4] = molecular target: T1, D2-Zn-WH; assay: fluorescence anisotropy; remark: listed apart in the source
D2-Zn-WH helix4A [5] = molecular target: T2, D2-Zn-WH helix4A; assay: fluorescence anisotropy; remark: listed apart in the source
SEC = molecular target: the molecule itself; assay: SEC

B1: Fork30T_R_FL/Fork30T_F forked duplex (dsDNA)
DNA 1: TTTTTTTTTTTTTTTTTTTTTTTTTTTTTTCGTACCCGATGTGTTCGTTC
DNA 2: GAACGAACACATCGGGTACGTTTTTTTTTTTTTTTTTTTTTTTTTTTTTT
In the case of B1, the Kd (RECQ1T1) is reported as 87 ± 16 nM and the Kd (RECQ1T1,helix4A) is reported as 193 ± 27 nM.

In the case of GGATCTCGACGCTCTCCCTT (ssDNA) [Rec20_FL ssDNA 20-mer], the Kd (D2-Zn-WH [1]) is reported as 1480 ± 110 nM.

B2: Rec20_FL/Rec20R_3oh 20/10-mer 3' tailed duplex (dsDNA)
DNA 1: GGATCTCGACGCTCTCCCTT
DNA 2: GTCGAGATCC
For B2, the Kd (D2-Zn-WH [2]) was 1970 ± 300 nM and the Kd (D2-Zn-WH helix4A [3]) was 5700 ± 1100 nM.

B3: Rec20_FL/Rec20R 20 bp blunt duplex (dsDNA)
DNA 1: GGATCTCGACGCTCTCCCTT
DNA 2: AAGGGAGAGCGTCGAGATCC
Binder B3 has a Kd (D2-Zn-WH [4]) of 1170 ± 120 nM and a Kd (D2-Zn-WH helix4A [5]) of 2080 ± 150 nM.

B4: RECQ1^T1 (near full-length human RECQ1, amino acid 49–616) (enzyme, UniProt P46063 49-616, looked up)
chain: CLEDSDAGASNEYDSSPAAWNKEDFPWSGKVKDILQNVFKLEKFRPLQLETINVTMAGKEVFLVMPTGGGKSLCYQLPALCSDGFTLVICPLISLMEDQLMVLKQLGISATMLNASSSKEHVKWVHAEMVNKNSELKLIYVTPEKIAKSKMFMSRLEKAYEARRFTRIAVDEVHCCSQWGHDFRPDYKALGILKRQFPNASLIGLTATATNHVLTDAQKILCIEKCFTFTASFNRPNLYYEVRQKPSNTEDFIEDIVKLINGRYKGQSGIIYCFSQKDSEQVTVSLQNLGIHAGAYHANLEPEDKTTVHRKWSANEIQVVVATVAFGMGIDKPDVRFVIHHSMSKSMENYYQESGRAGRDDMKADCILYYGFGDIFRISSMVVMENVGQQKLYEMVSYCQNISKCRRVLMAQHFDEVWNSEACNKMCDNCCKDSAFERKNITEYCRDLIKILKQAEELNEKLTPLKLIDSWMGKGAAKLRVAGVVAPTLPREDLEKIIAHFLIQQYLKEDYSFTAYATISYLKIGPKANLLNNEAHAITMQVTKSTQNSFRAESSQTCHSEQGDKKME
In the case of B4, the “stoichiometry N” value (SEC) is reported as 2.

From paper PMC8599812 (Nucleic Acids Research, 2021)
